From the DeepSol protein solubility set

Assay: soluble on expression in E. coli; label from the status in PepcDB or PDB records

MHSLTSRAPAEPDERLQALKRLIGKVTPQIGLNDVCKTSIPDLTFYRMDKLATPTYCIYEPCVAIILQGAKEITFGEQACEFAQGSFFVTSVDIPTLARVTAASEQTPYLSIVLKLDLSMLNDVIQTQAPLKQEATPEARGFASGMASSEMLDAFARLSALTGQPLEAGLMSDLIKREICVRLLLSCAGQWLRSVTRDGYRDKGIVRAIEWLKLHYDEPLHVAQLAQLSGMASSTLHHNFRKLTGTSPVQYQKSLRLQAARSLMLTERVDVNTAALRVGYESVAQFSREYARRFGAPPSRDIKYAREAGGRRD
soluble on expression in E. coli: not soluble

MGSDKIHHHHHHMTIQDYMLETPVRMREIISNADSLFNEVKRTNLKKIIITGSGTSYHSGVQVQPYLQNLLDIDVVKMYPFMITEDTFKFDNENTLVVGVSQGGSSYSTYNAMKLAEDKGCKIASMAGCKNALIDEISDYILTVNCGEEKSGAKTKGYYCTKLNLMLLGLQIAREKGIISSEKYNEEINKILDAINRFEAVYKLSKQWIERNKEKLVNSKEIRIIGHSDIYGDTLEAALKLLETMRIPVTGYEFEEFIHGIYNAINSDSTIFILDTGKEPRVTKMIDVLSGWTENVFAIGRDVTENDKNLKIDITDNPYYQTFNFIVPIQLICGEIPTLRGVDPSVPKDTRFHMKLGSKKLNK
soluble on expression in E. coli: not soluble

MAHHHHHHMDAERGCRQCGQQGHSASQCRIKKYLCRDCGGMHDTRDCIFSHVGEDWYEFYDPKTRHVYYANSDESQIQWNPPTHELDTIYWYCSRCQVMISAKFRECLLCHSIRPESKQQETLTTDSNSDSSSSSSTSSSSSSTDTSCISRSSSSSGSASSSDSSSNDDDKRSAAGRLRDRAP
soluble on expression in E. coli: soluble

DPSVTHVLHQLCDILANNYAFSERIPTLLQHLPNLDYSTVISEEDIAAKLNYELQSLTEDPRLVLKSKTDTLVMPGDSIQAENIPEDEAMLQALVNTVFKVSILPGNIGYLRFDQFADVSVIAKLAPFIVNTVWEPITITENLIIDLRYNVGGSSTAVPLLLSYFLDPETKIHLFTLHNRQQNSTDEVYSHPKVLGKPYGSKKGVYVLTSHQTATAAEEFAYLMQSLSRATIIGEITSGNLMHSKVFPFGDTQLSVTVPIINFIDSNGDYWLGGGVVPDAIVLADEALDKAKEIIAFHPPLA
soluble on expression in E. coli: soluble

TLFDGIARAVCRAGCLPRKELYEAWEVARRVRRRFRGGRVVDLACGHGLLAWIMLLLDDSSPGALAVDRRLPPSAAGLAAVLETEWPRLRGRVRLLEADLAEVELGRDDLVVSAHACGGLTDLVLARAVAAGARVAVLPCCHDLAGADLAGLQGWLDGPLAMDVLRATGLRERGYRVFTQQ
soluble on expression in E. coli: not soluble

FIFLALLGAAVAFPVDDDDKIVGGYTCGANTVPYQVSLNSGYHFCGGSLINSQWVVSAAHCYKSGIQVRLGEDNINVVEGNEQFISASKSIVHPSYNSNTLNNDIMLIKLKSAASLNSRVASISLPTSCASAGTQCLISGWGNTKSSGTSYPDVLKCLKAPILSDSSCKSAYPGQITSNMFCAGYLEGGKDSCQGDSGGPVVCSGKLQGIVSWGSGCAQKNKPGVYTKVCNYVSWIKQTIASN
soluble on expression in E. coli: soluble

MLRISRDLVIDEDDIEIGFVRASGPGGQNVNKVATSAQLRFDTRKLTLPEDATIRLARIAGQRMTKDGVIVIHAQRFRTQERNRQDAIDRLVEILSEALEHHHHHH
soluble on expression in E. coli: not soluble

MGSDKIHHHHHHAAPAPQAPALPANLTTRTWVLTDLAPGGKLRRVTGERPTLTWTVQPGGLQLSGSTGCNTYRGPATVTGQQLKVSALATTRRGCAPTQAQQENDFLTLLRGASHYRLSGQTLTVYAASTARLVFTAAPGGSMTTPSNTPAGANTPTGTTLKAAQLAGDWQLTDLREGGQAVTLPADAPFTFTASGTNTLRLSGMAGCNRLMGEVTLSGAGLTFGPLAATRMACEDMTAEQALSRVLQGSGQVTLKGDTLTWHRSGGEVVLTRRAPAATTADLSGSYRLLSVNGTAADARRTVSLTFKAGQVGGFDGCNSFGGEYSLDKAGHLTAGNLVTTLRACPDQLDQPILTALLGQAPTVQLRGRTLTLDAGGERWVFERE
soluble on expression in E. coli: not soluble

MNKEITFDKLPEAVTYLTEQVSAIKEMVSALHPPVPEEKSLIGIDEACVIIQKAKPTIYALVRKGIVPAYKRGKKLYFYKEELLQWVESGRKGATTAISSEEQLAMMRQEVRRKPKSIK
soluble on expression in E. coli: not soluble

WKITDEQRQYYVNQFKTIQPDLNGFIPGSAAKEFFTKSKLPILELSHIWELSDFDKDGALTLDEFCAAFHLVVARKNGYDLPEKLPESLMPK
soluble on expression in E. coli: soluble

AHHHHHHGSVDMSKVKLRIENIVASVDLFAQLDLEKVLDLCPNSKYNPEEFPGIICHLDDPKVALLIFSSGKLVVTGAKSVQDIERAVAKLAQKLKSIGVKFKRAPQIDVQNMVFSGDIGREFNLDVVALTLPNCEYEPEQFPGVIYRVKEPKSVILLFSSGKIVCSGAKSEADAWEAVRKLLRELDKYGLLEEEEEEL
soluble on expression in E. coli: soluble

MSITEQVDVAIVGSGPAGLAAAIELRRQGVARVCVLERDGEAGGIPRHCAHPPFGLREHGRLLTGPAYAQRNVEQAERAGVDIRLRHSVVALAAAGLLQLATPEGPRSLRATRVLLATGARETPRSARLLGGDRPLGVINTGALQAYLYLQGLKPFERPLIVGTELVSLSAVMSCRRAGIRPVAMLERNARATARWPLSLFPRLCGVPMHFSSELLEIEGRGRVEAARVRLGDGRVERIACDGILLSGRFVPESSLVRLSHLELDPASGGPRIDQFGRCSDPAYFAAGNLLRPIETAGWSFREGRRIAGLLAADLRAELPSAAPGIAIDCSGPLKLCVPQRLLADPTPGLAHLQLRVSEAASGRLRILADGRPVWERALSCLPERRLLVPLAALRLPPDTRRLEVAFLTSGHLEHHHHHH
soluble on expression in E. coli: not soluble

MGSDKIHHHHHHMQATDIATQQALAAALGVNRSAVTQAKNRDAIPQKWILQLARAYHLAPDWLEFGKGRQHQPPTSLHDPETVLVPRVKAVLSAGGGSLDVSGGVVENLPFRYDWLARRGHPAHMVLMNVTGDSMEPGIRHGDTLLIDQSHVTAQTGGVYAFGYEDSILVKRFGRDADAILLLSDNTAYAPIRIRGDEADLLHVIGKIVWLCRAVQ
soluble on expression in E. coli: not soluble

MDKIEVRGARTHNLKNINLVIPRDKLIVVTGLSGSGKSSLAFDTLYAEGQRRYVESLSAYARQFLSLMEKPDVDHIEGLSPAISIEQKSTSHNPRSTVGTITEIHDYLRLLFARVGEPRCPDHDVPLAAQTVSQMVDNVLSQPEGKRLMLLAPIIKERKGEHTKTLENLASQGYIRARIDGEVCDLSDPPKLELQKKHTIEVVVDRFKVRDDLTQRLAESFETALELSGGTAVVADMDDPKAEELLFSANFACPICGYSMRELEPRLFSFNNPAGACPTCDGLGVQQYFDPDRVIQNPELSLAGGAIRGWDRRNFYYFQMLKSLADHYKFDVEAPWGSLSANVHKVVLYGSGKENIEFKYMNDRGDTSIRRHPFEGVLHNMERRYKETESSAVREELAKFISNRPCASCEGTRLRREARHVYVENTPLPAISDMSIGHAMEFFNNLKLAGQRAKIAEKILKEIGDRLKFLVNVGLNYLTLSRSAETLSGGEAQRIRLASQIGAGLVGVMYVLDEPSIGLHQRDNERLLGTLIHLRDLGNTVIVVEHDEDAIRAADHVIDIGPGAGVHGGEVVAEGPLEAIMAVPESLTGQYMSGKRKIEVPKKRVPANPEKVLKLTGARGNNLKDVTLTLPVGLFTCITGVSGSGKSTLINDTLFPIAQRQLNGATIAEPAPYRDIQGLEHFDKVIDIDQSPIGRTPRSNPATYTGVFTPVRELFAGVPESRARGYTPGRFSFNVRGGRCEACQGDGVIKVEMHFLPDIYVPCDQCKGKRYNRETLEIKYKGKTIHEVLDMTIEEAREFFDAVPALARKLQTLMDVGLTYIRLGQSATTLSGGEAQRVKLARELSKRGTGQTLYILDEPTTGLHFADIQQLLDVLHKLRDQGNTIVVIEHNLDVIKTADWIVDLGPEGGSGGGEILVSGTPETVAECEASHTARFLKPML
soluble on expression in E. coli: soluble

MMSQQFNVAIFGATGAVGETMLEVLQEREFPVDELFLLASERSEGKTYRFNGKTVRVQNVEEFDWSQVHIALFSAGGELSAKWAPIAAEAGVVVIDNTSHFRYDYDIPLVVPEVNPEAIAEFRNRNIIANPNCSTIQMLVALKPIYDAVGIERINVTTYQSVSGAGKAGIDELAGQTAKLLNGYPAETNTFSQQIAFNCIPQIDQFMDNGYTKEEMKMVWETQKIFNDPSIMVNPTCVRVPVFYGHAEAVHVETRAPIDAEQVMDMLEQTDGIELFRGADFPTQVRDAGGKDHVLVGRVRNDISHHSGINLWVVADNVRKGAATNAVQIAELLVRDYF
soluble on expression in E. coli: not soluble
